{
  "source": "paper PMC4755848",
  "about": "(Proteins, 2016)",
  "molecules": {"B1": {"name": "BaiE_13275 (Peptacetobacter hiranonis DSM 13275) (protein)", "chain": "MTLEARIEALEKEIQRLNDIEAIKQLKAKYFRCLDGKLWDELETTLSPNIETSYSDGKLVFHSPKEVTEYLAAAMPKEEISMHMGHTPEITIDSENTATGRWYLEDNLIFTDGKYKNVGINGGAFYTDKYEKIDGQWYIKETGYVRIFEEHFMRDPKIHITSNMHKEK"}, "B2": {"name": "BaiE_35704 ([Clostridium] scindens ATCC 35704) (protein)", "chain": "MTLEERVEALEKELQKMKDIEAIKELKGKYFRCLDGKMWDELETTLSPNIVTSYSNGKLVFHSPKEVTDYLKSTMPKEEISMHMGHTPEITIDSETTATGRWYLEDKLIFTDGKYKDVGINGGAFYTDKYEKIEGQWYILETGYVRIYEEHFMRDPKIHITMNMHK"}, "B3": {"name": "BaiE (bile acid 7α-dehydratase) from Clostridium scindens VPI12708 (enzyme, UniProt P19412 1-166, looked up)", "chain": "MTLEERVEALEKELQEMKDIEAIKELKGKYFRCLDGKMWDELETTLSPNIVTSYSNGKLVFHSPKEVTDYLKSSMPKEEISMHMGHTPEITIDSETTATGRWYLEDRLIFTDGKYKDVGINGGAFYTDKYEKIDGQWYILETGYVRIYEEHFMRDPKIHITMNMHK"}, "B4": {"name": "BaiE_15053 ([Clostridium] hylemonae DSM 15053) (protein)", "chain": "MSIEERLEALEKEIQKMKDIEEIKKLKGQYFRCLDGKFWDELETTLSPNIVTSYSNGKLVFHGPKEVTDYFKKAMPREEISMHMGHTPEITIDSETTATGRWYLEDKLIFTEESKYAGSGVNGGAFYTDKYEKVDGKWYILETGYLRVYEEHFMRDPKIKITMNMHKTK"}},
  "key": {"[1]": {"target": "BaiE (bile acid 7α-dehydratase) from Clostridium hylemonae DSM15053 (Clostridium hylemonae DSM15053)", "assay": "SEC"}, "[2]": {"target": "BaiE (bile acid 7α-dehydratase) from Clostridium scindens ATCC35704 (Clostridium scindens ATCC35704) (UniProt P19412)", "assay": "SEC"}, "[3]": {"target": "BaiE (bile acid 7α-dehydratase) from Clostridium hiranonis DSM13275 (Clostridium hiranonis DSM13275)", "assay": "SEC"}, "[4]": {"substrate": "C[C@H](CCC(=O)O)[C@H]1CC[C@H]2[C@@H]3[C@H](O)CC4=CC(=O)CC[C@]4(C)[C@H]3CC[C@]12C", "assay": "purified protein", "type": "biochemical, Peptacetobacter hiranonis", "settings": "20 mM Tris-HCl pH 7.3, 25 °C"}, "[5]": {"substrate": "C[C@H](CCC(=O)SCCNC(=O)CCNC(=O)[C@H](O)C(C)(C)COP(=O)(O)OP(=O)(O)OC[C@H]1O[C@@H](n2cnc3c(N)ncnc32)[C@H](O)[C@@H]1OP(=O)(O)O)[C@H]1CC[C@H]2[C@@H]3[C@H](O)CC4=CC(=O)CC[C@]4(C)[C@H]3CC[C@]12C", "assay": "purified protein", "type": "biochemical, Peptacetobacter hiranonis", "settings": "20 mM Tris-HCl pH 7.3, 25 °C"}, "[6]": {"substrate": "C[C@H](CCC(=O)O)[C@H]1CC[C@H]2[C@@H]3[C@H](O)CC4=CC(=O)CC[C@]4(C)[C@H]3CC[C@]12C", "assay": "purified protein", "type": "biochemical, [Clostridium] scindens", "settings": "20 mM Tris-HCl pH 7.3, 25 °C"}, "[7]": {"substrate": "C[C@H](CCC(=O)SCCNC(=O)CCNC(=O)[C@H](O)C(C)(C)COP(=O)(O)OP(=O)(O)OC[C@H]1O[C@@H](n2cnc3c(N)ncnc32)[C@H](O)[C@@H]1OP(=O)(O)O)[C@H]1CC[C@H]2[C@@H]3[C@H](O)CC4=CC(=O)CC[C@]4(C)[C@H]3CC[C@]12C", "assay": "purified protein", "type": "biochemical, [Clostridium] scindens", "settings": "20 mM Tris-HCl pH 7.3, 25 °C"}, "[8]": {"target": "the molecule itself", "assay": "SEC"}, "[9]": {"substrate": "C[C@H](CCC(=O)O)[C@H]1CC[C@H]2[C@@H]3[C@H](O)CC4=CC(=O)CC[C@]4(C)[C@H]3CC[C@]12C", "assay": "purified protein", "type": "biochemical, [Clostridium] hylemonae", "settings": "20 mM Tris-HCl pH 7.3, 25 °C"}, "[10]": {"substrate": "C[C@H](CCC(=O)SCCNC(=O)CCNC(=O)[C@H](O)C(C)(C)COP(=O)(O)OP(=O)(O)OC[C@H]1O[C@@H](n2cnc3c(N)ncnc32)[C@H](O)[C@@H]1OP(=O)(O)O)[C@H]1CC[C@H]2[C@@H]3[C@H](O)CC4=CC(=O)CC[C@]4(C)[C@H]3CC[C@]12C", "assay": "purified protein", "type": "biochemical, [Clostridium] hylemonae", "settings": "20 mM Tris-HCl pH 7.3, 25 °C"}},
  "data": [
    {"molecule": "BaiE (bile acid 7α-dehydratase) from Clostridium hylemonae DSM15053 (enzyme)", "values": [
      {"measurement": "stoichiometry N", "setting": "[1]", "value": 3}
    ]},
    {"molecule": "BaiE (bile acid 7α-dehydratase) from Clostridium scindens ATCC35704 (from UniProt P19412 1-166) (enzyme)", "values": [
      {"measurement": "stoichiometry N", "setting": "[2]", "value": 3}
    ]},
    {"molecule": "BaiE (bile acid 7α-dehydratase) from Clostridium hiranonis DSM13275 (enzyme)", "values": [
      {"measurement": "stoichiometry N", "setting": "[3]", "value": 3}
    ]},
    {"molecule": "B1", "values": [
      {"measurement": "Km", "setting": "[4]", "value": "25.0 (1.8) μM"},
      {"measurement": "kcat", "setting": "[4]", "value": 4.4, "unit": "s⁻¹"},
      {"measurement": "kcat/Km", "setting": "[4]", "value": 200000, "unit": "M⁻¹ s⁻¹"},
      {"measurement": "Km", "setting": "[5]", "value": "208.0 (40.0) μM"},
      {"measurement": "kcat", "setting": "[5]", "value": 22.2, "unit": "s⁻¹"},
      {"measurement": "kcat/Km", "setting": "[5]", "value": 100000, "unit": "M⁻¹ s⁻¹"}
    ]},
    {"molecule": "B2", "values": [
      {"measurement": "Km", "setting": "[6]", "value": "11.0 (1.9) μM"},
      {"measurement": "kcat", "setting": "[6]", "value": 18, "unit": "s⁻¹"},
      {"measurement": "kcat/Km", "setting": "[6]", "value": "1.6e+06", "unit": "M⁻¹ s⁻¹"},
      {"measurement": "Km", "setting": "[7]", "value": "1.2 (0.2) μM"},
      {"measurement": "kcat", "setting": "[7]", "value": 15, "unit": "s⁻¹"},
      {"measurement": "kcat/Km", "setting": "[7]", "value": "1.25e+07", "unit": "M⁻¹ s⁻¹"}
    ]},
    {"molecule": "B3", "values": [
      {"measurement": "Km", "setting": "[6]", "value": "9.9 (2.1) μM"},
      {"measurement": "kcat", "setting": "[6]", "value": 24, "unit": "s⁻¹"},
      {"measurement": "kcat/Km", "setting": "[6]", "value": "2.4e+06", "unit": "M⁻¹ s⁻¹"},
      {"measurement": "Km", "setting": "[7]", "value": "4.0 (0.56) μM"},
      {"measurement": "kcat", "setting": "[7]", "value": 98, "unit": "s⁻¹"},
      {"measurement": "kcat/Km", "setting": "[7]", "value": "2.45e+07", "unit": "M⁻¹ s⁻¹"},
      {"measurement": "stoichiometry N", "setting": "[8]", "value": 3}
    ]},
    {"molecule": "B4", "values": [
      {"measurement": "Km", "setting": "[9]", "value": "21.0 (2.0) μM"},
      {"measurement": "kcat", "setting": "[9]", "value": 18.6, "unit": "s⁻¹"},
      {"measurement": "kcat/Km", "setting": "[9]", "value": 900000, "unit": "M⁻¹ s⁻¹"},
      {"measurement": "Km", "setting": "[10]", "value": "11.4 (1.9) μM"},
      {"measurement": "kcat", "setting": "[10]", "value": 12.6, "unit": "s⁻¹"},
      {"measurement": "kcat/Km", "setting": "[10]", "value": "1.1e+06", "unit": "M⁻¹ s⁻¹"}
    ]}
  ]
}
